No end group written: not given here.
Assays:
[1] = target: IGS4A (IGS4APROT), human G-protein coupled receptor IGS4, polymorphic form A (human, UniProt Q9GZQ4 4-415); experiment: cell-based or functional assay
[2] = target: T1, IGS4B (IGS4BPROT), human G-protein coupled receptor IGS4, polymorphic form B (human, UniProt Q9GZQ4 4-415); experiment: cell-based or functional assay
T1 chain: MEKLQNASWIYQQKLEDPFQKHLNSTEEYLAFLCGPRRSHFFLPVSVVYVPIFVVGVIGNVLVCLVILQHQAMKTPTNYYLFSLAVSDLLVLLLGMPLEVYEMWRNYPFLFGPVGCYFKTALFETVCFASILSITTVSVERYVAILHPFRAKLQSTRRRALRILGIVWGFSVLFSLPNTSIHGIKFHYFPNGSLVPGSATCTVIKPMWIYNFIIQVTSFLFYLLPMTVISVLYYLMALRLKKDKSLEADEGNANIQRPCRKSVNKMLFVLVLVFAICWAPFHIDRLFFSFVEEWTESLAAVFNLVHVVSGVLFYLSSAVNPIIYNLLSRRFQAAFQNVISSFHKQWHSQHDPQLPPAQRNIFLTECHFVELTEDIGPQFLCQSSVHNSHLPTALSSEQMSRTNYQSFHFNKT

Which “EC50, calcium mobilisation (FLIPR)” value [1] does the source give for YKVNEYQGPVAPSGGFFLFRPRN-NH2 (peptide, UniProt P12760 144-166, looked up) [rat Neuromedin U-23] here?
The value was 53 nM.

What about the “log EC50, calcium mobilisation (FLIPR)” value [1] of the same binder?
Its value is -7.27 log M.

What about the “EC50, calcium mobilisation (FLIPR)” value [2] of the same binder?
Its value is 0.05 nM.

And the “LogEC50, calcium mobilisation (FLIPR)” value [2]?
The value was -10.6 log M.

— patent publication US20040175796A1 (SOLVAY PHARMACEUTICALS B V, published 2004)
